In patent US20060015959:

Biological target: recombinant Tau (Panvera)

B1: full length human transglutaminase II (protein)
chain: MAEELVLERCDLELETNGRDHHTADLCREKLVVRRGQPFWLTLHFEGRNYEASVDSLTFSVVTGPAPSQEAGTKARFPLRDAVEEGDWTATVVDQQDCTLSLQLTTPANAPIGLYRLSLEASTGYQGSSFVLGHFILLFNAWCPADAVYLDSEEERQEYVLTQQGFIYQGSAKFIKNIPWNFGQFEDGILDICLILLDVNPKFLKNAGRDCSRRSSPVYVGRVVSGMVNCNDDQGVLLGRWDNNYGDGVSPMSWIGSVDILRRWKNHGCQRVKYGQCWVFAAVACTVLRCLGIPTRVVTNYNSAHDQNSNLLIEYFRNEFGEIQGDKSEMIWNFHCWVESWMTRPDLQPGYEGWQALDPTPQEKSEGTYCCGPVPVRAIKEGDLSTKYDAPFVFAEVNADVVDWIQQDDGSVHKSINRSLIVGLKISTKSVGRDEREDITHTYKYPEGSSEEREAFTRANHLNKLAEKEETGMAMRIRVGQSMNMGSDFDVFAHITNNTAEEYVCRLLLCARTVSYNGILGPECGTKYLLNLNLEPFSEKSVPLCILYEKYRDCLTESNLIKVRALLVEPVINSYLLAERDLYLENPEIKIRILGEPKQKRKLVAEVSLQNPLPVALEGCTFTVEGAGLTEEQKTVEIPDPVEAGEEVKVRMDLLPLHMGLHKLVVNFESDKLKAVKGFRNVIIGPA
  tau aggregation (high molecular weight total tau immunoreactive protein complex on western blot) in the transglutaminase activity assay: increased, Ca2+-dependent tau aggregation when recombinant tau was added to brain lysate from mice with overexpression of hTGII
